Laboratory results published in publication PMC6355983, “Structure of the Large Extracellular Loop of FtsX and Its Interaction with the Essential Peptidoglycan Hydrolase PcsB in Streptococcus pneumoniae” (mBio, 2019).

Legend:
[1] = molecular target: T1, PcsB CC (Streptococcus pneumoniae, UniProt A0A0H2ZQ76); assay: ITC; given as Ka
T1 chain: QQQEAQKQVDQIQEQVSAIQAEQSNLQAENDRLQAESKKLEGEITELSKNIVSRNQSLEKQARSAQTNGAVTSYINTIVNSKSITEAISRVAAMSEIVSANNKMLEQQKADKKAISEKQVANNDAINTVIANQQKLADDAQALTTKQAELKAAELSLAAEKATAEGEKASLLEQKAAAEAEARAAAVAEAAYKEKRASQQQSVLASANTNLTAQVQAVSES

[2] = molecular target: T2, PcsB coiled-coil domain, PscBCC(47–267) (Streptococcus pneumoniae, UniProt A0A0H2US70 47-267); assay: ITC; titration of PscBCC with FtsX_(ECL1) (wild type or L115A M119A); 50 mM potassium phosphate, 50 mM NaCl, 0.5 mM EDTA, pH 7.0, 25.0°C; one-site binding model; conditions: both partners purified
T2 construct: PcsB peptidoglycan hydrolase, Streptococcus pneumoniae, coiled-coil domain, residues 47 to 267; also called PcsB-CC(47–267); His-PscBCC(47–267); source: E. coli strain derived from BL21(DE3)
T2 sequence (looked up): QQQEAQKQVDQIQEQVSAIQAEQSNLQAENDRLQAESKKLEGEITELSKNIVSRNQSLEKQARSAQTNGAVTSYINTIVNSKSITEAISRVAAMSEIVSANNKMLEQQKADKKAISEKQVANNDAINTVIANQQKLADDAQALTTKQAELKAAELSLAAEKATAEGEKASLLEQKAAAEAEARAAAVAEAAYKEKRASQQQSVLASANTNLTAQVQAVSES

B1: FtsX ECL1 (protein)
chain: TAKLATDIENNVRVVVYIRKDVEDNSQTIEKEGQTVTNNDYHKVYDSLKNMSTVKSVTFSSKEEQYEKLTEIMGDNWKIFEGDANPLYDAYIVEANAPNDVKTIAEDAKKIEGVSEVQDGGA
B1 gave a Kd [1] of 33.3 µM.

B2: FtsX large extracellular loop 1 (FtsX_(ECL1)), residues 46 to 168 (domain or fragment, Streptococcus pneumoniae, UniProt Q04LE4 46-168, looked up)
chain: NTAKLATDIENNVRVVVYIRKDVEDNSQTIEKEGQTVTNNDYHKVYDSLKNMSTVKSVTFSSKEEQYEKLTEIMGDNWKIFEGDANPLYDAYIVEANAPNDVKTIAEDAKKIEGVSEVQDGGA
notes: FtsX, Streptococcus pneumoniae, large extracellular loop (ECL1), residues 46 to 168; Uniformly 15N-labelled when observed by NMR, unlabelled when added to 15N PcsBCC(47-254) and in ITC; also called wild-type (WT) FtsX_(ECL1); Spn ECL1; source: E. coli strain derived from BL21(DE3); LB or M9 minimal medium with 15NH4Cl
Work on B2 yielded a Ka [2] of 30000 M⁻¹, a Kd [2] of 34 ± 6 µM and a dH [2] of -2.1 ± 0.2 kcal/mol.
